Source: patent publication US20210395372A1

Tests used:
[1] = biological target: human Met-Fc chimera (human) (UniProt P08581); experiment: ELISA
[2] = biological target: human Met receptor on cells (human) (UniProt P08581); experiment: cell-based or functional assay
human Met receptor on cells (human), sequence (P08581 25-1390): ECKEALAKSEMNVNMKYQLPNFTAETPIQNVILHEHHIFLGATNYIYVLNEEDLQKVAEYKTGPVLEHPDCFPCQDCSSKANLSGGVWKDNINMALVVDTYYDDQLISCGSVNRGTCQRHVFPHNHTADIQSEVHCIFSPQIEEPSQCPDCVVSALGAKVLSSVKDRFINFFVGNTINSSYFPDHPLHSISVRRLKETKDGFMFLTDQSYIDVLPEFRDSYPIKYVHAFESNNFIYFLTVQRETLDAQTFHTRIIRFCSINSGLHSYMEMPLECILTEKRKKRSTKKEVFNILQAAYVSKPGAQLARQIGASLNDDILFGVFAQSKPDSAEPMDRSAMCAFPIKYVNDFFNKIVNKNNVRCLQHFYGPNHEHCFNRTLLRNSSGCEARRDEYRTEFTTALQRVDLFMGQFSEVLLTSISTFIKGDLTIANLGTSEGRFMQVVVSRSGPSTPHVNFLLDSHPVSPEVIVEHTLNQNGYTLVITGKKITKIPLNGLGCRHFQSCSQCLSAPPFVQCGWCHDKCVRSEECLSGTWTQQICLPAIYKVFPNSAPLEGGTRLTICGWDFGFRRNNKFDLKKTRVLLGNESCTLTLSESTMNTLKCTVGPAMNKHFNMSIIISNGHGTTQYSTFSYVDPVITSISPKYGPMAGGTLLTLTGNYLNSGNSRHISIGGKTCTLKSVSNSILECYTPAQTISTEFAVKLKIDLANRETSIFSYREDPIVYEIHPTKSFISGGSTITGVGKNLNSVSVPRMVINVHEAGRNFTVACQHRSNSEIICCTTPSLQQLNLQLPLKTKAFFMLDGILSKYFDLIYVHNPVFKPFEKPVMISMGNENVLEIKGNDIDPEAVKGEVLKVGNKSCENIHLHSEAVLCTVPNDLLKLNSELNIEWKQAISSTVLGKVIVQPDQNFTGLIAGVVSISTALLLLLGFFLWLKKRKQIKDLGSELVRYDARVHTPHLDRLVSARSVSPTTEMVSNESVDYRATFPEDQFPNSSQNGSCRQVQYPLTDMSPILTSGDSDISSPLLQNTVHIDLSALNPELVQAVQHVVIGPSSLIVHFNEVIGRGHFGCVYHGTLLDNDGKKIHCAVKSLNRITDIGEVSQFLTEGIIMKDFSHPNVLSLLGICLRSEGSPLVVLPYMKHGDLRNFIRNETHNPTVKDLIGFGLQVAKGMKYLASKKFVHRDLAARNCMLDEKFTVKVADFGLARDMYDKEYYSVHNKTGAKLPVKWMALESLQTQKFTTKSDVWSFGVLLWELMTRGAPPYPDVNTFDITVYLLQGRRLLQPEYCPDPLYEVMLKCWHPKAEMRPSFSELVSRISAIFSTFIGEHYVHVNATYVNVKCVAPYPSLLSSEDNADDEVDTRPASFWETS

human Met-Fc chimera (human), sequence (P08581 25-932, change not shown): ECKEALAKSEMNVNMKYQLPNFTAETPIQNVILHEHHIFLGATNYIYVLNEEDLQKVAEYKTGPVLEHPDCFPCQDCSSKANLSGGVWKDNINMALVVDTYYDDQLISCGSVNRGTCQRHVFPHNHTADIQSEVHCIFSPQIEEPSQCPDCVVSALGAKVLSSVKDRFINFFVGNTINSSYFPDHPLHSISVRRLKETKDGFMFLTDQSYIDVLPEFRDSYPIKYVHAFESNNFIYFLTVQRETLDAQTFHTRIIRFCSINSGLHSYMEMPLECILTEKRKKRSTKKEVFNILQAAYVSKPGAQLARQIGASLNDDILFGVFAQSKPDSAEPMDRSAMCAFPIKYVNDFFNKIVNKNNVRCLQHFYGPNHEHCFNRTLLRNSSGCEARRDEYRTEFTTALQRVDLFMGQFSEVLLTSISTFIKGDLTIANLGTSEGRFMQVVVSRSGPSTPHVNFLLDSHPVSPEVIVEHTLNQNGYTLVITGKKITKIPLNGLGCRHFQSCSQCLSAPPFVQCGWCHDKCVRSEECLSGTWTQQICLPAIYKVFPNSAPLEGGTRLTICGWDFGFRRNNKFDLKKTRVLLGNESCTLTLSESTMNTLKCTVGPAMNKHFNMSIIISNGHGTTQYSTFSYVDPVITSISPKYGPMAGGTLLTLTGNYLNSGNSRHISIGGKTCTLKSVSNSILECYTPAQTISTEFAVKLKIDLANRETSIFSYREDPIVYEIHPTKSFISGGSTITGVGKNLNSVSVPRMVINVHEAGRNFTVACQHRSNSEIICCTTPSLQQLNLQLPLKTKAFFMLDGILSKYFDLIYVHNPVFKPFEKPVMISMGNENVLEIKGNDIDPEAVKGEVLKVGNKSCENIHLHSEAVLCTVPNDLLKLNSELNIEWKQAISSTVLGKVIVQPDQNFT

Kd [1]	percentage of GTL-16 cells in S phase (EdU), 1 uM antibody [2]	reduction of proliferating GTL-16 cells versus control (EdU), 1 uM antibody [2]	Substance
0.319 nM	–	–	chOA-DN30
–	15%	52%	chOA-DN30 (antibody)
